System: Nb2 cells
Experiment: Nb2 cell proliferation (3H-thymidine) to assess CypB modulation of somatolactogenic action
Format: cell-based, rat
Method: The effect of exogenous CypB on PRL-driven proliferation was examined with the rat Nb2 T-cell and the human T47D breast cancer line. […] This dose-dependent biphasic effect was most prominent at physiologic concentrations (5-10 mM) of CypB and PRL (50 pM) found in human serum. […] To determine the effect of CypB on cellular growth driven by the larger family of cytokines, to which PRL belongs, proliferation driven by interleukin-2 (IL-2), IL-3 and GH was examined.
Nb2-cells (5×10^4; PRL-dependent, rat T-lymphoma) were plated in each well of 96 well plates in a defined DMEM-serum free medium (0.1 mM 2-mercaptoethanol, 1% penicillin/streptomycin, and 1% ITS+(Calbiochem)). Cells were rested for 24 hours at 37° C. in this defined medium in the absence of PRL before the addition of 5-500 pM PRL (either as human pituitary isolated PRL, National Hormone and Pituitary Program, NIDDK; recombinant human PRL from E. coli, Genzyme; or recombinant human PRL from Drosophila S2 cells) alone or premixed with 1-2000 fold excess of purified CypB. Parallel studies were performed using human pituitary-derived GH (National Hormone and Pituitary Program, NIDDK). Cultures were incubated for 48 hours at 37° C. and proliferation was evaluated by the addition of 0.5 μCi of ^3H-thymidine for four hours followed by harvesting and scintillography. […]

Molecule | bioactivity in Nb2 bioassays (protein secreted by Drosophila S2 cells) | PRL concentration at which the sigmoid Nb2 growth curve plateaus (Nb2 cells stimulated with PRL alone)
Myc-tagged PRL: recombinant human PRL with myc-tag expressed in Drosophila S2 cells (protein, left off: small tags and cut ends, recombinant human PRL with myc-tag expressed in Drosophila S2 cells) LPICPGGAARCQVTLRDLFDRAVVLSHYIHNLSSEMFSEFDKRYTHGRGFITKAINSCHTSSLATPEDKEQAQQMNQKDFLSLIVSILRSWNEPLYHLVTEVRGMQEAPEAILSKAVEIEEQTKRLLEGMELIVSQVHPETKENEIYPVWSGLPSLQMADEESRLSAYYNLLHCLRRDSHKIDNYLKLLKCRIIHNNNC | functionally bioactive | –
PRL: human prolactin, pituitary isolated or recombinant (protein, left off: small tags and cut ends, human prolactin, pituitary isolated or recombinant) LPICPGGAARCQVTLRDLFDRAVVLSHYIHNLSSEMFSEFDKRYTHGRGFITKAINSCHTSSLATPEDKEQAQQMNQKDFLSLIVSILRSWNEPLYHLVTEVRGMQEAPEAILSKAVEIEEQTKRLLEGMELIVSQVHPETKENEIYPVWSGLPSLQMADEESRLSAYYNLLHCLRRDSHKIDNYLKLLKCRIIHNNNC | – | approximately 2 ng PRL/ml
